Measured values taken from PMC3958349.
Each block holds one substance with its values, some of them ahead of it.

Legend:
[1] = target: eGFP-GR (wild-type mouse glucocorticoid receptor with eGFP fused to its N-terminal end) (mouse) (UniProt P06537); test: number and brightness (N&B) analysis; living BHK cells transiently transfected with pEGFP-GR or pEGFP-GR^A465T; 10 µM 21OH-6,19OP; nuclear brightness ε
[2] = target: eGFP-GR (wild-type mouse glucocorticoid receptor with eGFP fused to its N-terminal end) (mouse) (UniProt P06537); test: number and brightness (N&B) analysis; living GR-null MEF cell lines stably expressing eGFP-GR or its mutants at endogenous levels; 100 nM Dex or 100 nM Cort; nuclear brightness ε
[3] = target: eGFP-GR (wild-type mouse glucocorticoid receptor with eGFP fused to its N-terminal end) (mouse) (UniProt P06537); test: number and brightness (N&B) analysis; living BHK cells transiently transfected with pEGFP-GR or its mutants; 100 nM (0.1 µM) Dex or 100 nM Cort for at least 1 h; nuclear brightness ε relative to vehicle; ligand washout also tested (Cort withdrawal reduced the dimers, Dex washout did not)
eGFP-GR^A465T (mouse) [4] = target: eGFP-GR^A465T (mouse) (UniProt P06537); test: number and brightness (N&B) analysis; living GR-null MEF cell lines stably expressing eGFP-GR or its mutants at endogenous levels; 100 nM Dex or 100 nM Cort; nuclear brightness ε
eGFP-GR^A465T (mouse) [5] = target: eGFP-GR^A465T (mouse) (UniProt P06537); test: number and brightness (N&B) analysis; living 3617 cells (tetracycline to inhibit the stable GFP-GR) transiently transfected with pEGFP-GR or its mutants; 100 nM Dex or 100 nM Cort for at least 30 min; nuclear brightness ε
mCherry-GR (wild type) = mCherry-GR (wild type) (UniProt P06537); test: number and brightness (N&B) analysis; living 3617 cells transiently expressing mCherry, mCherryGRwt, GFP and/or GFP-p65; 300 nM Cort and/or 10 ng/ml TNF-α; nuclear brightness ε in the green and red channels

Chain of mCherry-GR (wild type) (P06537 whole entry): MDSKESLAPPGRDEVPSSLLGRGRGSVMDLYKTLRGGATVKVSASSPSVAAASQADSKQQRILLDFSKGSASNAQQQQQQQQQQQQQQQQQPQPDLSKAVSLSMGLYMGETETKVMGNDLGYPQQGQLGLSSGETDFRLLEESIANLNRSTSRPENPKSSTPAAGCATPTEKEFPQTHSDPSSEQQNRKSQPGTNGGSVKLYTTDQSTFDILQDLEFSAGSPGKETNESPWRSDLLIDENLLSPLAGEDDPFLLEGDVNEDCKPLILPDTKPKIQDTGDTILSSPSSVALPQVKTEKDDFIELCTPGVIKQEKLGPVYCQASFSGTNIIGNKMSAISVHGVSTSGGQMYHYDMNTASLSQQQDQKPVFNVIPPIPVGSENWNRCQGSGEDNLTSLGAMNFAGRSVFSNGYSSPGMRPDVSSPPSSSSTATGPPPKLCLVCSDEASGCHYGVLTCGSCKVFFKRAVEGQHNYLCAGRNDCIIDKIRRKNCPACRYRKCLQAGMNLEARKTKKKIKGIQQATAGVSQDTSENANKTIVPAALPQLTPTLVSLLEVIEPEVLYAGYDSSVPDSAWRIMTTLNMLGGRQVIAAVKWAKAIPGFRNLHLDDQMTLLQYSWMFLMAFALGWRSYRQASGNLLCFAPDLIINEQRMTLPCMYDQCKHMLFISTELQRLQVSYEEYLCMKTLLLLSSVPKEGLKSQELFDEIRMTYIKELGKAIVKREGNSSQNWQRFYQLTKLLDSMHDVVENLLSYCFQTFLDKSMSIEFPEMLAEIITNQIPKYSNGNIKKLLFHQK

- stoichiometry N [1]: 2
- stoichiometry N [2]: 2
- stoichiometry N [3]: 2
Substance: eGFP-GR (wild-type mouse glucocorticoid receptor with eGFP fused to its N-terminal end) (from UniProt P06537 1-792)

- stoichiometry N (eGFP-GR^A465T (mouse) [4]): 2
- stoichiometry N (eGFP-GR^A465T (mouse) [5]): 2
Substance: eGFP-GR^A465T (from UniProt P06537 1-792) (receptor)

- stoichiometry N (mCherry-GR (wild type)): 2
Substance: mCherry-GR (wild type) (from UniProt P06537 1-792) (receptor)
